Measurements reported in US20040131609A1 (published 2004).

Target: T1, RSV F antigen (respiratory syncytial virus (RSV), UniProt P03420 26-524)
T1 construct: also called F antigen of RSV; RSV F protein
Assay: antibody titration ELISA on 500 ng RSV F antigen; qualitative score from titration curves

T1 sequence (P03420 26-524): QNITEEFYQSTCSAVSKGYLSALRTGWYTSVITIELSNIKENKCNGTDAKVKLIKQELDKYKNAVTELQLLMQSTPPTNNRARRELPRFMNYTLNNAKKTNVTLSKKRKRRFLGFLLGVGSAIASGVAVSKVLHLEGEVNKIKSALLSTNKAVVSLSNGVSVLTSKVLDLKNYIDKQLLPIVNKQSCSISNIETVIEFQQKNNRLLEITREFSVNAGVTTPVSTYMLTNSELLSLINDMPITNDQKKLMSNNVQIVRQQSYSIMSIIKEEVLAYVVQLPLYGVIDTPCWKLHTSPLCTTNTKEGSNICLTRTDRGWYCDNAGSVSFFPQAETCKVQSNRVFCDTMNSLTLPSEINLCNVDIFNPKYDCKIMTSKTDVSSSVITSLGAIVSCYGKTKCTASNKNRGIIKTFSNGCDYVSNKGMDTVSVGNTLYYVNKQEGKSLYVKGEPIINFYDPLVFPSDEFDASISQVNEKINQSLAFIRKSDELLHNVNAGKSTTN

B1: clone 3 (PFFF) (Fab, V domains shown)
VH: QVTLRESGPALVKPTQTLTLTCTFSGFSLSTPGMSVGWIRQPPGKALEWLADIWWDDKKDYNPSLKSRLTISKDTSKNQVVLKVTNMDPADTATYYCARSMITNFYFDVWGQGTTVTVSS
VL: DIQMTQSPSTLSASVGDRVTITCSASSSVGYMHWYQQKPGKAPKLLIYDTFKLASGVPSRFSGSGSGTEFTLTISSLQPDDFATYYCFQGSFYPFTFGGGTKVEIK
- Ag Score: 4 arbitrary score (0-4)

B2: clone 7 (PFFG) (antibody, V domains shown)
VH: QVTLRESGPALVKPTQTLTLTCTFSGFSLSTPGMSVGWIRQPPGKALEWLADIWWDDKKDYNPSLKSRLTISKDTSKNQVVLKVTNMDPADTATYYCARSMITNFYFDVWGQGTTVTVSS
VL: DIQMTQSPSTLSASVGDRVTITCSASSSVGYMHWYQQKPGKAPKLLIYDTFKLASGVPSRFSGSGSGTEFTLTISSLQPDDFATYYCFQGSGYPFTFGGGTKVEIK
- Ag Score: 3 arbitrary score (0-4)

B3: clone 20 (SFSF) (antibody, V domains shown)
VH: QVTLRESGPALVKPTQTLTLTCTFSGFSLSTSGMSVGWIRQPPGKALEWLADIWWDDKKDYNPSLKSRLTISKDTSKNQVVLKVTNMDPADTATYYCARSMITNFYFDVWGQGTTVTVSS
VL: DIQMTQSPSTLSASVGDRVTITCSASSSVGYMHWYQQKPGKAPKLLIYDTSKLASGVPSRFSGSGSGTEFTLTISSLQPDDFATYYCFQGSFYPFTFGGGTKVEIK
- Ag Score: 2 arbitrary score (0-4)

B4: clone 6 (PFYF) (antibody, V domains shown)
VH: QVTLRESGPALVKPTQTLTLTCTFSGFSLSTPGMSVGWIRQPPGKALEWLADIWWDDKKDYNPSLKSRLTISKDTSKNQVVLKVTNMDPADTATYYCARSMITNFYFDVWGQGTTVTVSS
VL: DIQMTQSPSTLSASVGDRVTITCSASSSVGYMHWYQQKPGKAPKLLIYDTYKLASGVPSRFSGSGSGTEFTLTISSLQPDDFATYYCFQGSFYPFTFGGGTKVEIK
- Ag Score: 3.5 arbitrary score (0-4)

B5: reference antibody IX-493 (SWSG) (Fab, V domains shown)
VH: QVTLRESGPALVKPTQTLTLTCTFSGFSLSTSGMSVGWIRQPPGKALEWLADIWWDDKKDYNPSLKSRLTISKDTSKNQVVLKVTNMDPADTATYYCARSMITNWYFDVWGQGTTVTVSS
VL: DIQMTQSPSTLSASVGDRVTITCSASSSVGYMHWYQQKPGKAPKLLIYDTSKLASGVPSRFSGSGSGTEFTLTISSLQPDDFATYYCFQGSGYPFTFGGGTKVEIK
notes: also called Basic; basic antibody
- Ag Score: 0.1 arbitrary score (0-4)

B6: clone 14 (SFFW) (antibody, V domains shown)
VH: QVTLRESGPALVKPTQTLTLTCTFSGFSLSTSGMSVGWIRQPPGKALEWLADIWWDDKKDYNPSLKSRLTISKDTSKNQVVLKVTNMDPADTATYYCARSMITNFYFDVWGQGTTVTVSS
VL: DIQMTQSPSTLSASVGDRVTITCSASSSVGYMHWYQQKPGKAPKLLIYDTFKLASGVPSRFSGSGSGTEFTLTISSLQPDDFATYYCFQGSWYPFTFGGGTKVEIK
- Ag Score: 2.5 arbitrary score (0-4)

B7: clone 1 (AFSF) (Fab, V domains shown)
VH: QVTLRESGPALVKPTQTLTLTCTFSGFSLSTAGMSVGWIRQPPGKALEWLADIWWDDKKDYNPSLKSRLTISKDTSKNQVVLKVTNMDPADTATYYCARSMITNFYFDVWGQGTTVTVSS
VL: DIQMTQSPSTLSASVGDRVTITCSASSSVGYMHWYQQKPGKAPKLLIYDTSKLASGVPSRFSGSGSGTEFTLTISSLQPDDFATYYCFQGSFYPFTFGGGTKVEIK
- Ag Score: 4 arbitrary score (0-4)

B8: clone 18 (SFFG) (antibody, V domains shown)
VH: QVTLRESGPALVKPTQTLTLTCTFSGFSLSTSGMSVGWIRQPPGKALEWLADIWWDDKKDYNPSLKSRLTISKDTSKNQVVLKVTNMDPADTATYYCARSMITNFYFDVWGQGTTVTVSS
VL: DIQMTQSPSTLSASVGDRVTITCSASSSVGYMHWYQQKPGKAPKLLIYDTFKLASGVPSRFSGSGSGTEFTLTISSLQPDDFATYYCFQGSGYPFTFGGGTKVEIK
- Ag Score: 2 arbitrary score (0-4)

B9: clone 9 (PFSW) (antibody, V domains shown)
VH: QVTLRESGPALVKPTQTLTLTCTFSGFSLSTPGMSVGWIRQPPGKALEWLADIWWDDKKDYNPSLKSRLTISKDTSKNQVVLKVTNMDPADTATYYCARSMITNFYFDVWGQGTTVTVSS
VL: DIQMTQSPSTLSASVGDRVTITCSASSSVGYMHWYQQKPGKAPKLLIYDTSKLASGVPSRFSGSGSGTEFTLTISSLQPDDFATYYCFQGSWYPFTFGGGTKVEIK
- Ag Score: 3 arbitrary score (0-4)

B10: clone 12 (PWFF) (antibody, V domains shown)
VH: QVTLRESGPALVKPTQTLTLTCTFSGFSLSTPGMSVGWIRQPPGKALEWLADIWWDDKKDYNPSLKSRLTISKDTSKNQVVLKVTNMDPADTATYYCARSMITNWYFDVWGQGTTVTVSS
VL: DIQMTQSPSTLSASVGDRVTITCSASSSVGYMHWYQQKPGKAPKLLIYDTFKLASGVPSRFSGSGSGTEFTLTISSLQPDDFATYYCFQGSFYPFTFGGGTKVEIK
- Ag Score: 2.5 arbitrary score (0-4)

B11: clone 17 (PWSW) (antibody, V domains shown)
VH: QVTLRESGPALVKPTQTLTLTCTFSGFSLSTPGMSVGWIRQPPGKALEWLADIWWDDKKDYNPSLKSRLTISKDTSKNQVVLKVTNMDPADTATYYCARSMITNWYFDVWGQGTTVTVSS
VL: DIQMTQSPSTLSASVGDRVTITCSASSSVGYMHWYQQKPGKAPKLLIYDTSKLASGVPSRFSGSGSGTEFTLTISSLQPDDFATYYCFQGSWYPFTFGGGTKVEIK
- Ag Score: 2 arbitrary score (0-4)

B12: clone 5 (PFFW) (antibody, V domains shown)
VH: QVTLRESGPALVKPTQTLTLTCTFSGFSLSTPGMSVGWIRQPPGKALEWLADIWWDDKKDYNPSLKSRLTISKDTSKNQVVLKVTNMDPADTATYYCARSMITNFYFDVWGQGTTVTVSS
VL: DIQMTQSPSTLSASVGDRVTITCSASSSVGYMHWYQQKPGKAPKLLIYDTFKLASGVPSRFSGSGSGTEFTLTISSLQPDDFATYYCFQGSWYPFTFGGGTKVEIK
- Ag Score: 3.5 arbitrary score (0-4)

B13: clone 10 (PFSF) (antibody, V domains shown)
VH: QVTLRESGPALVKPTQTLTLTCTFSGFSLSTPGMSVGWIRQPPGKALEWLADIWWDDKKDYNPSLKSRLTISKDTSKNQVVLKVTNMDPADTATYYCARSMITNFYFDVWGQGTTVTVSS
VL: DIQMTQSPSTLSASVGDRVTITCSASSSVGYMHWYQQKPGKAPKLLIYDTSKLASGVPSRFSGSGSGTEFTLTISSLQPDDFATYYCFQGSFYPFTFGGGTKVEIK
- Ag Score: 3 arbitrary score (0-4)

B14: clone 21 (SWYF) (antibody, V domains shown)
VH: QVTLRESGPALVKPTQTLTLTCTFSGFSLSTSGMSVGWIRQPPGKALEWLADIWWDDKKDYNPSLKSRLTISKDTSKNQVVLKVTNMDPADTATYYCARSMITNWYFDVWGQGTTVTVSS
VL: DIQMTQSPSTLSASVGDRVTITCSASSSVGYMHWYQQKPGKAPKLLIYDTYKLASGVPSRFSGSGSGTEFTLTISSLQPDDFATYYCFQGSFYPFTFGGGTKVEIK
- Ag Score: 2 arbitrary score (0-4)

B15: clone 11 (PWFW) (antibody, V domains shown)
VH: QVTLRESGPALVKPTQTLTLTCTFSGFSLSTPGMSVGWIRQPPGKALEWLADIWWDDKKDYNPSLKSRLTISKDTSKNQVVLKVTNMDPADTATYYCARSMITNWYFDVWGQGTTVTVSS
VL: DIQMTQSPSTLSASVGDRVTITCSASSSVGYMHWYQQKPGKAPKLLIYDTFKLASGVPSRFSGSGSGTEFTLTISSLQPDDFATYYCFQGSWYPFTFGGGTKVEIK
- Ag Score: 3 arbitrary score (0-4)

B16: clone 2 (AFFG) (Fab, V domains shown)
VH: QVTLRESGPALVKPTQTLTLTCTFSGFSLSTAGMSVGWIRQPPGKALEWLADIWWDDKKDYNPSLKSRLTISKDTSKNQVVLKVTNMDPADTATYYCARSMITNFYFDVWGQGTTVTVSS
VL: DIQMTQSPSTLSASVGDRVTITCSASSSVGYMHWYQQKPGKAPKLLIYDTFKLASGVPSRFSGSGSGTEFTLTISSLQPDDFATYYCFQGSGYPFTFGGGTKVEIK
- Ag Score: 4 arbitrary score (0-4)

B17: clone 19 (SFSW) (antibody, V domains shown)
VH: QVTLRESGPALVKPTQTLTLTCTFSGFSLSTSGMSVGWIRQPPGKALEWLADIWWDDKKDYNPSLKSRLTISKDTSKNQVVLKVTNMDPADTATYYCARSMITNFYFDVWGQGTTVTVSS
VL: DIQMTQSPSTLSASVGDRVTITCSASSSVGYMHWYQQKPGKAPKLLIYDTSKLASGVPSRFSGSGSGTEFTLTISSLQPDDFATYYCFQGSWYPFTFGGGTKVEIK
- Ag Score: 2 arbitrary score (0-4)

B18: clone 4 (PFFY) (antibody, V domains shown)
VH: QVTLRESGPALVKPTQTLTLTCTFSGFSLSTPGMSVGWIRQPPGKALEWLADIWWDDKKDYNPSLKSRLTISKDTSKNQVVLKVTNMDPADTATYYCARSMITNFYFDVWGQGTTVTVSS
VL: DIQMTQSPSTLSASVGDRVTITCSASSSVGYMHWYQQKPGKAPKLLIYDTFKLASGVPSRFSGSGSGTEFTLTISSLQPDDFATYYCFQGSYYPFTFGGGTKVEIK
- Ag Score: 3.5 arbitrary score (0-4)

B19: clone 13 (SFFF) (antibody, V domains shown)
VH: QVTLRESGPALVKPTQTLTLTCTFSGFSLSTSGMSVGWIRQPPGKALEWLADIWWDDKKDYNPSLKSRLTISKDTSKNQVVLKVTNMDPADTATYYCARSMITNFYFDVWGQGTTVTVSS
VL: DIQMTQSPSTLSASVGDRVTITCSASSSVGYMHWYQQKPGKAPKLLIYDTFKLASGVPSRFSGSGSGTEFTLTISSLQPDDFATYYCFQGSFYPFTFGGGTKVEIK
- Ag Score: 2.5 arbitrary score (0-4)

B20: clone 16 (PFSG) (antibody, V domains shown)
VH: QVTLRESGPALVKPTQTLTLTCTFSGFSLSTPGMSVGWIRQPPGKALEWLADIWWDDKKDYNPSLKSRLTISKDTSKNQVVLKVTNMDPADTATYYCARSMITNFYFDVWGQGTTVTVSS
VL: DIQMTQSPSTLSASVGDRVTITCSASSSVGYMHWYQQKPGKAPKLLIYDTSKLASGVPSRFSGSGSGTEFTLTISSLQPDDFATYYCFQGSGYPFTFGGGTKVEIK
- Ag Score: 2 arbitrary score (0-4)

B21: clone 15 (AFSG) (antibody, V domains shown)
VH: QVTLRESGPALVKPTQTLTLTCTFSGFSLSTAGMSVGWIRQPPGKALEWLADIWWDDKKDYNPSLKSRLTISKDTSKNQVVLKVTNMDPADTATYYCARSMITNFYFDVWGQGTTVTVSS
VL: DIQMTQSPSTLSASVGDRVTITCSASSSVGYMHWYQQKPGKAPKLLIYDTSKLASGVPSRFSGSGSGTEFTLTISSLQPDDFATYYCFQGSGYPFTFGGGTKVEIK
- Ag Score: 2.5 arbitrary score (0-4)
